# Test: yeast display, Sf9 membrane polyspecificity reagent, FACS + sequencing; frameworks hold sequencing errors
# How it was run: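 Genes from sorted yeast were amplified by colony PCR, read by MiSeq 2 × 250 sequencing and filtered on CDR length. These cells carried a synthetic nanobody library in Saccharomyces cerevisiae BJ5465 and were sorted by FACS into low and high (top ~1%) gates on anti-HA and streptavidin fluorescence. Polyreactivity is labelled according to the gate of origin.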
row,Sequence,polyreactivity (PSR sort gate)
1,QVQLVESGGGLVQAGGSLRLSCAASGRIFRLYAMGWYRQAPGKERELVAAISFSGSRTYYADSVKGRFTISRDNAKNNVYLQMNSLQPEDTAVYYCNKDHYVRYGLDYWGQGTQVTVSS,high polyreactivity
2,QVQLVESGGGLVQAGGSLRLSCAASGRIFRLYAMGWYSQEPGKDRELVATITSGGTYYADSVKGRFTISRDNAKNTVYLQMISLSPEDTAVYYCTARRRLRYDFWGQGTQVTVSS,low polyreactivity
3,QVQLVESGGGLVQAGGSLRLSCAASGRIFRPYAMGWYRQAPGKERELVAAISVSGVITYYADSVKGRFTISRDNAKNTVYLQMISLKPEDTAVYYCATDYTPRRWGRLYDYWGQGTQVTVSS,low polyreactivity
4,QVQLVESGGGLVQAGGSLRLSCAASGRIFRPYAMGWYRQAPGKERELVATITGSGGTTYYADSVKGRFTISRDNAKNSVYFQMNSLKPEDTAVYYCNVDPRSDIIPMDYWGQGTQVTVSS,low polyreactivity
5,QVQLVESGGGLVQAGGSLRLSCAASGRIFRPYTMGWYRQAPGKERELVAANSWRGGSTYYADSVKVRFTISLDNAKNTVYLLINSLKPEATAVYYCATYVKVIRTAGTRPKMGYWGQVTQVTVSS,high polyreactivity
6,QVQLVESGGGLVQAGGSLRLSCAASGRIFRRNTMGWSRQAPGKERELVAAITSSGGSTYADSVKGRFTISRDNAKKTVYLQMNSLKPEDTAVYYCATYVAYHRGYRTYDHWGQGTQVTVSS,low polyreactivity
7,QVQLVESGGGLVQAGGSLRLSCAASGRIFRRNTMGWYRQAPGKERELVAAITSSGGSTYADSVKGRFTISRDNAKNTVYLQMNSLKPEDTAVYYCAAVRLYRYDYWGQGTQVTVSS,low polyreactivity
8,QVQLVESGGGLVQAGGSLRLSCAASGRIFRRYAMGWYRQAPGKEREFVAAITDGSTYYADSVKGRFTISRDNAKNTVYLQMNSLKPEDTAVYYCATQYGWSYSRRFYYWGQGTQVTVSS,high polyreactivity
9,QVQLVESGGGLVQAGGSLRLSCAASGRIFRRYAMGWYRQAPGKERELVAAITRSGGSTYYADSVKGRFTISRDNAKNTVYLQMNSLKPEDTAVYYCAARQVGRYYYLSRYYYWGQGTQVTVSS,high polyreactivity
10,QVQLVESGGGLVQAGGSLRLSCAASGRIFRRYAMGWYRQAPGTERELVAAITASGGITYYADSVKGRFTISRDNAKNTVYLQMNSLKPEDTAVYYCAARGSSGYDYWGQGTQVTVSS,high polyreactivity
11,QVQLVESGGGLVQAGGSLRLSCAASGRIFRSYAMGWYREAPGKERELVAAISSGGSTNYADSVKGRFTISRDNAKNTVYLQLNSLKPEDTAVYYCAAELWAYTWYWHSDYWGQGTQVTVSS,low polyreactivity
12,QVQLVESGGGLVQAGGSLRLSCAASGRIFRSYAMGWYRQAPGKERELVAAISRSGGSTYYADSVKGRFTISRDNAKNTVYLQMNSLKPEDTAVYYCAGVYTYPLGYYHYTYDYWGQGTQVTVSS,low polyreactivity
13,QVQLVESGGGLVQAGGSLRLSCAASGRIFRSYAMGWYRQAPGKERELVAAITWSGGSTYYADSVKGRFTISRDNAKNTVYLQMHSLKPEDTAVYYCARVVTKKYSHTGYEYWGQGTQVTVSS,high polyreactivity
14,QVQLVESGGGLVQAGGSLRLSCAASGRIFRSYAMGWYRQAPGKERELVAAMTWGGGRTYYADSVKGRFTISRDNAKNTVYLQMNSLKPEDTAVYYCNTLAYPYYRGSKYDYWGQGTQVTVSS,high polyreactivity
15,QVQLVESGGGLVQAGGSLRLSCAASGRIFRTNAMGWYRQAPGKERELVAAISDSGADTSYADSVKGRFTISRDNAKNTVYLQMNSLKPEDTAVYYCNRGRVYYRYLKDYDYWGQGTQVTVSS,low polyreactivity
16,QVQLVESGGGLVQAGGSLRLSCAASGRIFRTYALGWYRQAPGKERELVAAINSGGTTYYADSVKGRFTISRDNAKNTVYLQLNSLKPEDTAVYYCNAEYYYAFLRLWYDYWGQGTQVTVSS,high polyreactivity
17,QVQLVESGGGLVQAGGSLRLSCAASGRIFRTYAMGWYRQAPGKERELVAAINSVDRTYYADSVKGRFTISRDNAKNTVYLQMNSLKPEDTAVYYCAARGYRGHDEFGYWGQGTQVTVSS,high polyreactivity
18,QVQLVESGGGLVQAGGSLRLSCAASGRIFRTYAMGWYRQAPGKERELVAAIRSGGSTKYADSVKGRFTISRDNAKNTVYLQMNSLKPEDTAVYYCAAAVLGRYSAGDGYWGQGTQVTVSS,low polyreactivity
19,QVQLVESGGGLVQAGGSLRLSCAASGRIFRVYAMGWYRQAPGKERELVAAISSYGGSTYYADSVKGRFTISRDNAKNTVYLQMNSLIPEDTAVYYCAAESSPDGYFLSDYWGQGTQVTVSS,low polyreactivity
20,QVQLVESGGGLVQAGGSLRLSCAASGRIFRWYALGWYRQAPGKERELVAAISSRGGSTYYADSVKGRFTISRDNAKNTVYLQLNSLKPEDTAVYYCAADTSGWQPRYDYWGQGTQVTVSS,high polyreactivity
21,QVQLVESGGGLVQAGGSLRLSCAASGRIFRWYAMGWYRQAPGKERELVAAISYSGGSTYYADSVKGRFTISRDNAKNTVYLQMNSLKPEDTAVYYCAAATYYKFDYWGQGTQVTVSW,high polyreactivity
22,QVQLVESGGGLVQAGGSLRLSCAASGRIFRWYAMGWYRQAPGKERELVAGINYGGGRTYYADSVKGRFTISRDNAKNTVYLQMNSLNPEDTAVYYCAAGISGHYYWGQGTQVTVSS,high polyreactivity

row,Sequence,polyreactivity (PSR sort gate)
1,QVQLVESGGGLVQAGGSLRLSCAASGRIFRWYAMGWYRQAPGKERELVATISSSGRTNYADSVKGRFTISRDNAKNTVYLQMNSLKPEETAVYYCNADGGDWFGYVGMDYWGQGTQVTVSS,high polyreactivity
2,QVQLVESGGGLVQAGGSLRLSCAASGRIFRYNAMGWYRQAPGKEREFVAAITSSGAGTHYADSVKGRFTISRDNAKNTVYLQMNSLKPEDTAVYYCNARGYYSKNSYDYYTGDYWGQGTQVTVSS,high polyreactivity
3,QVQLVESGGGLVQAGGSLRLSCAASGRIFRYNAMGWYRQAPGKERELVAAISSVGSTNYADSVKGRFTISRDNAKNTVYLQMNSLKPEDTAVYYCNAVVRSYVKTYRYYKVDYWGQGTQVTVSS,high polyreactivity
4,QVQLVESGGGLVQAGGSLRLSCAASGRIFRYNVMGWYRQPPGKERELVAAIRWSGGSTYYADSVKGRFTISRDNAKNTVYLQMNSLKPEDTAVYYCNTVGRWRGYDYWGQGTQVTVSS,high polyreactivity
5,QVQLVESGGGLVQAGGSLRLSCAASGRIFRYYAMGWSRQAPGKERELVAAISSSGGSTYYADSVKGRFTISRDNAKNTVYLQMNSLKPEDTAVYYCAGVFRLGVGYEYWGQGTQVTVSS,high polyreactivity
6,QVQLVESGGGLVQAGGSLRLSCAASGRIFRYYAMGWYRQAPGKERELDAAISRSGGSTYYADSVKGRFTISRDNAKNTVYLQMNSLKPEDTAVYYCAARVYRYGAMDYWGQGTQVTVSS,high polyreactivity
7,QVQLVESGGGLVQAGGSLRLSCAASGRIFRYYAMGWYRQAPGKERELVAAISSGGRTYYADSVKGRFPISRDNEKNTVYLQMNSLKPEDTAVYYCNTYTYAGYNYWGQGTQVTVSS,high polyreactivity
8,QVQLVESGGGLVQAGGSLRLSCAASGRIFRYYAMGWYRQAPGKERELVAAISSGVGNTYYADSVKGRFTISRDNAKNTVYVQMNSLKPEDTAVFYCKAKWRKFGTVRYDYWGQGTQVTVSS,high polyreactivity
9,QVQLVESGGGLVQAGGSLRLSCAASGRIFRYYAMGWYRQAPGKERELVAAISSSGGSTYYADSVKGRFTISRDNAKNTVYLQMNSLKPEDTAVYYCNTVGSVGKKRDYWGQGTQVTVSS,high polyreactivity
10,QVQLVESGGGLVQAGGSLRLSCAASGRIFRYYAMGWYRQAPGKERELVAAITRGGSTNYADSVKGRFTISRDNAKNTVYLQMNSLIPEDTAVYYCNKYPYFVYGDYGYWGQGTQVTVSS,high polyreactivity
11,QVQLVESGGGLVQAGGSLRLSCAASGRIFRYYAMGWYRQAPGKERELVAAITWSGGSTYYADSVKGRFTISRDNAKNTVYLQMNSLKPEDTAVYYCNAKSYQPFHGDYWGQGTQVTVSS,low polyreactivity
12,QVQLVESGGGLVQAGGSLRLSCAASGRIFRYYAMGWYRQAPGKERELVADIWSDGSTYYADSVKGRFTISRDNAKNTVYLQMNSLKPEDTAVYYCNAARTYYWYSAKFDYWGQGTQVTVSS,high polyreactivity
13,QVQLVESGGGLVQAGGSLRLSCAASGRIFRYYAMGWYRQAPGKERELVATISGRGGSTYYADSVKGRFTISRDNAKNTVYREMNSLKPEDTAVYYCYTVSTRYIYDYWGQGTQVTVSS,high polyreactivity
14,QVQLVESGGGLVQAGGSLRLSCAASGRIFRYYAMGWYSQAPGQDRELVAAISWSGGSTYYADSVKGRFTISRDKAKNTVYLQMHSLKPEDTAVYYCNKVPLGLEGDYWGQGTQVTVSS,high polyreactivity
15,QVQLVESGGGLVQAGGSLRLSCAASGRIFRYYDMGWYRQAPGKERELVAAITSDGSTKDADSVKGRFTISRDNAKNTVYLQMNSLKQEDTAVYYCNAEVLPTWYSPQLDYWGQGTQVTVSS,low polyreactivity
16,QVQLVESGGGLVQAGGSLRLSCAASGRIFRYYTMGWYRQAPGKERELVAAITARGTRTYYADSVKGRFTISRDNAKNTVYLQMNSLKPEETSVYYCAADRYIYFAPSMDYWGQGTQVTVSS,high polyreactivity
17,QVQLVESGGGLVQAGGSLRLSCAASGRIFRYYTRGWYRQAPGKERELVAAISSSGGRTYYADSVKGRFTISRDYANNTVYLQMNSLKPEDTAVYYCNTDGPTWYPTYDYWGQGTQVTVSS,high polyreactivity
18,QVQLVESGGGLVQAGGSLRLSCAASGRIFRYYVMGWNRQAPGKERELVATITSGGSTNYADSVKGRFTISRDNAKNTVYLQMNSLKPEDTAVYYCAAEKVSGQGEMDYWGQGTQVTVSS,low polyreactivity
19,QVQLVESGGGLVQAGGSLRLSCAASGRIFRYYVMGWYRQAPGKERELVATITSGGSTNYADSVKGRFTISRDNAKNTVYLQMYSLKPEDTAVYYCARGTSTCTYYWYGYWGQGTQVTVSS,low polyreactivity
20,QVQLVESGGGLVQAGGSLRLSCAASGRIFSAYAMGWFRQAPGKERELLAAISKRGGRTYYADSVKGRFTISRDNATNTVYLQTNSLKPEDTSVYYCNKRYLDGHDLDYCGQGTQVTVSS,high polyreactivity
21,QVQLVESGGGLVQAGGSLRLSCAASGRIFSDYAMGRYRQAPGKDRELVATITTGDSTNYADSVKGRFTISRDNAKNTVYLQMNSLKPEDTAVYYCNADRFADYDYWGQGTQVTVSS,low polyreactivity

# — the nanobody polyreactivity screen of Harvey et al. (2022)
